B1: Regulatory protein rop, P03051 (parent)
chain: MTKQEKTALNMARFIRSQTLTLLEKLNELDADEQADICESLHDHADELYRSCLARFGDDGENL

Variants of: B1
Details: Escherichia coli, pH 6.3, CD, Phosphate 50 mM, NaCl 300 mM, structure 1ROP, whole UniProt chain shown; for Tm / change of melting temperature, mutant - wild type (higher = more stable) / heat capacity change of unfolding / unfolding enthalpy (van 't Hoff): Thermal

Variant | Tm [°C] | change of melting temperature, mutant - wild type (higher = more stable) [°C] | heat capacity change of unfolding [kcal/mol/K] | unfolding enthalpy (van 't Hoff) [kcal/mol] | denaturant m value (Urea) [kcal/mol/M] | denaturant midpoint (higher = more stable) (Urea) [M] | unfolding free energy (Urea) [kcal/mol] | ddG of mutation (higher = less stable) (Urea) [kcal/mol]
C38A C52V | 74 | 4 | 1.1 | 65 | 1.3 | 4.1 | 11 | 
C38A C52A | 56 | -14 | 1.1 | 65 | 0.9 | 2.3 | 7.7 | 8.3

From FireProtDB (doi:10.1002/pro.342)
